Results taken from PMC10883291.

B1: BMS-986351 (antibody, V domains shown)
VH: QVQLVQSGAEVKKPGASVKVSCKASGYTFRGYGISWVRQAPGQGLEWMGWISAYGGETNYAQKLQGRVTMTTDTSTSTAYMELRSLRSDDTAVYYCAREAGSSWYDFDLWGRGTLVTVSS
VL: DIQMTQSPSSVSASVGDRVTITCRASQGISSWLAWYQQKPGKAPKLLIYAASNLQSGVPSRFSGSGSGTDFTLTISSLQPEDFATYYCQQGASFPITFGGGTKVEIK
B2: BMS-986351-Fab (Fab, V domains shown)
VH: B1 VH
VL: B1 VL

Tests used:
[1] = target: FcγR2A (CD32aR131) (human); test: FRET or BRET; time-resolved FRET (Cisbio); FcγRs expressed on HEK293 cells (Tb donor cells); IgG-d2 acceptor conjugate displaced by the test antibodies; EC50 by the manufacturer's protocol
FcγR2A (CD32aR131) (human), sequence (P12318 34-317 H167R): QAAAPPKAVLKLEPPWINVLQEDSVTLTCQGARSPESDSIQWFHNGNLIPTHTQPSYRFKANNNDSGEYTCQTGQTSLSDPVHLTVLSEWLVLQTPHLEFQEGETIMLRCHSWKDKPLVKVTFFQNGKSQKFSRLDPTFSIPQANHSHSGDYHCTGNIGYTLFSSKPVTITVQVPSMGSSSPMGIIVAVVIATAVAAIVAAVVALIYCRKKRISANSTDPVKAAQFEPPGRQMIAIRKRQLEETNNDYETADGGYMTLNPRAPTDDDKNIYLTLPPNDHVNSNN

[2] = target: FcγR3A (CD16aV158) (human); test: as above
FcγR3A (CD16aV158) (human), sequence (P08637 17-254 F176V): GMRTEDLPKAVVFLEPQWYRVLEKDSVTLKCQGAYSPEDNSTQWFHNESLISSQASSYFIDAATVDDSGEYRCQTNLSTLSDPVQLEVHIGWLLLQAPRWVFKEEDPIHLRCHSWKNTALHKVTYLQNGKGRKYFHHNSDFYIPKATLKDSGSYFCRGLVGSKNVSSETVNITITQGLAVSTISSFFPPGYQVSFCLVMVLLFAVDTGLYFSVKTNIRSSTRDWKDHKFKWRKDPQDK

[3] = target: SIRPα variant 6 Fc (haplotype v6 ELE) (human) (UniProt P78324); test: BLI; Octet, under affinity conditions; SIRPα variants 1-6 Fc captured on anti-human capture tips, dipped into 50 nmol/L BMS-986351-Fab; association 180 s, dissociation 180 s; 2 x 10^-4 is the limit of koff that can be confidently assigned
SIRPα variant 6 Fc (haplotype v6 ELE) (human), sequence (P78324 other isoform, or with tags, fused parts or gaps, change not shown): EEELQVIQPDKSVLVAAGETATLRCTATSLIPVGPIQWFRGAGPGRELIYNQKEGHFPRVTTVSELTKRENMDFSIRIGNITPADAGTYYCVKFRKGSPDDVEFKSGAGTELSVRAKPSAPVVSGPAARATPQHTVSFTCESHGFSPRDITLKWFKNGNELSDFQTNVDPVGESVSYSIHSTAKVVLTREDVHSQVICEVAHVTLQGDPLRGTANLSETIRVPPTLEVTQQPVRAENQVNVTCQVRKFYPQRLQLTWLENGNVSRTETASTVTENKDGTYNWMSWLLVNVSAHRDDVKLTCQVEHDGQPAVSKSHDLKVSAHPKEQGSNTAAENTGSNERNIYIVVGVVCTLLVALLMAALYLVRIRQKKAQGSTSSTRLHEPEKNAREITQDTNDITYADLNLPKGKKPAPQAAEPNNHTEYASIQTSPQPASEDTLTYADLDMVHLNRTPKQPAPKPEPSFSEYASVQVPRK

[4] = target: SIRPα variant 5 Fc (haplotype v5 EPN) (human) (UniProt P78324); test: as above
SIRPα variant 5 Fc (haplotype v5 EPN) (human), sequence (P78324 other isoform, or with tags, fused parts or gaps, change not shown): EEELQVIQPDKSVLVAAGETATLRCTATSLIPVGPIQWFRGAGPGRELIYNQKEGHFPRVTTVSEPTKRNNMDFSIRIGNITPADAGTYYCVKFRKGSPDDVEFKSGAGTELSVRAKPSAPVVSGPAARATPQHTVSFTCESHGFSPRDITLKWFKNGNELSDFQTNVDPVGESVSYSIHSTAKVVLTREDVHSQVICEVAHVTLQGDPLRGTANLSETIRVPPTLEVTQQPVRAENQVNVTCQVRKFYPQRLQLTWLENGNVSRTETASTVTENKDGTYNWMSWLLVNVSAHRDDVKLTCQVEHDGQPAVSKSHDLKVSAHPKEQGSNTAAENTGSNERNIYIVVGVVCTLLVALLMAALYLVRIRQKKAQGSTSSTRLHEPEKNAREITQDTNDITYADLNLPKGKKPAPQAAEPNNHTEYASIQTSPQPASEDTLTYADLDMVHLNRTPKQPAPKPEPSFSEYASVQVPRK

[5] = target: SIRPα variant 3 Fc (haplotype v3 DLE) (human) (UniProt P78324); test: as above
SIRPα variant 3 Fc (haplotype v3 DLE) (human), sequence (P78324 other isoform, or with tags, fused parts or gaps, change not shown): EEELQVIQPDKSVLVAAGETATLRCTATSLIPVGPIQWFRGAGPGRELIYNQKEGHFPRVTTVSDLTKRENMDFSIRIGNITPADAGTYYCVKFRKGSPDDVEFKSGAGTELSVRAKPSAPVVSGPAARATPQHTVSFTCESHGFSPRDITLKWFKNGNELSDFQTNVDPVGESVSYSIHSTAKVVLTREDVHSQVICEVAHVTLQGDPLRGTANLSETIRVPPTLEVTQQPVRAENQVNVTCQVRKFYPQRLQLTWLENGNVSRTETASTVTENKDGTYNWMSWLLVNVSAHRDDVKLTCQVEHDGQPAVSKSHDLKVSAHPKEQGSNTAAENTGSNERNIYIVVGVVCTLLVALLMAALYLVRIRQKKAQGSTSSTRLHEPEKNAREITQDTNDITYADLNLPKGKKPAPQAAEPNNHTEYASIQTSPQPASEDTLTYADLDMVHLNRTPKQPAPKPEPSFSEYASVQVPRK

[6] = target: SIRPα variant 4 Fc (haplotype v4 ESK) (human) (UniProt P78324); test: as above
SIRPα variant 4 Fc (haplotype v4 ESK) (human), sequence (P78324 other isoform, or with tags, fused parts or gaps, change not shown): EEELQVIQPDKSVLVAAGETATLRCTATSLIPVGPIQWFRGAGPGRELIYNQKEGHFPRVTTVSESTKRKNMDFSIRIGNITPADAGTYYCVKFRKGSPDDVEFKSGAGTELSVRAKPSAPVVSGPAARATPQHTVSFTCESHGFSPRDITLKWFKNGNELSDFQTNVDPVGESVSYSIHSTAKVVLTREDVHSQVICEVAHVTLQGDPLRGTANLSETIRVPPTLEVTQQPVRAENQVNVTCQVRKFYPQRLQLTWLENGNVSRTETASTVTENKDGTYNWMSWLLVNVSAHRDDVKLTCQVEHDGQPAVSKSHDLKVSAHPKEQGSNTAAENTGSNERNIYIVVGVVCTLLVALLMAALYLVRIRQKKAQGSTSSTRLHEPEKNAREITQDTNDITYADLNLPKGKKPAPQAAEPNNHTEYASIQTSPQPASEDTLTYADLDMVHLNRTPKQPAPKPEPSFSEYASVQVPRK

Binder	EC50 [1] [nM]	EC50 [2] [nM]	Kd [3] [nM]	koff [3] [s⁻¹]	kon [3] [M⁻¹ s⁻¹]	Kd [4] [nM]	koff [4] [s⁻¹]	kon [4] [M⁻¹ s⁻¹]	Kd [5] [nM]	koff [5] [s⁻¹]	kon [5] [M⁻¹ s⁻¹]	Kd [6] [nM]	koff [6] [s⁻¹]	kon [6] [M⁻¹ s⁻¹]
B1	188	795	–	–	–	–	–	–	–	–	–	–	–	–
B2	–	–	0.183	0.000356	1.94e+06	0.611	0.00106	1.73e+06	< 0.145	< 0.0002	1.38e+06	1.52	0.00228	1.5e+06
